The supplement of paper PMC9233669
This sample holds only a part of the variants without activity.

Experiments:
biotinyl-Phe-oxazolone = test: self-aminoacylation, catalytic enhancement (BFO) (fold over background); higher = more active; k-Seq, kA / k0A0; sequences stand for … in GGGAAUGGAUCCACAUCUACGAAUUC…UUCACUGCAGACUUGACGAAGCUG
Method in brief: (§1)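 The uncatalyzed rate is the low-activity peak of a bimodal Gaussian fit, and catalytic enhancement is median kA divided by it. The kA values came from pseudo-first-order fits, with 1000 bootstraps, of per-sequence fraction reacted measured by streptavidin capture, triplicate qPCR and Illumina sequencing. Mutagenized RNA pools with a 21-nt variable region (0.43 μM) were reacted with each biotinyl-aminoacyl-oxazolone at 2–1250 μM in 50 μL HEPES/NaCl/KCl/MgCl2/CaCl2 buffer with 5% acetonitrile, pH 6.9–7.0, for 90 minutes at room temperature.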

biotinyl-Ile-oxazolone = test: self-aminoacylation, catalytic enhancement (BIO) (fold over background); higher = more active; k-Seq, kA / k0A0; sequences stand for … in GGGAAUGGAUCCACAUCUACGAAUUC…UUCACUGCAGACUUGACGAAGCUG
Method in brief: as §1

biotinyl-Met-oxazolone = test: self-aminoacylation, catalytic enhancement (BMO) (fold over background); higher = more active; k-Seq, kA / k0A0; sequences stand for … in GGGAAUGGAUCCACAUCUACGAAUUC…UUCACUGCAGACUUGACGAAGCUG
Method in brief: as §1

biotinyl-Val-oxazolone = test: self-aminoacylation, catalytic enhancement (BVO) (fold over background); higher = more active; k-Seq, kA / k0A0; sequences stand for … in GGGAAUGGAUCCACAUCUACGAAUUC…UUCACUGCAGACUUGACGAAGCUG
Method in brief: as §1

biotinyl-Leu-oxazolone = test: self-aminoacylation, catalytic enhancement (BLO) (fold over background); higher = more active; k-Seq, kA / k0A0; sequences stand for … in GGGAAUGGAUCCACAUCUACGAAUUC…UUCACUGCAGACUUGACGAAGCUG
Method in brief: as §1

biotinyl-Trp-oxazolone = test: self-aminoacylation, catalytic enhancement (BWO) (fold over background); higher = more active; k-Seq, kA / k0A0; sequences stand for … in GGGAAUGGAUCCACAUCUACGAAUUC…UUCACUGCAGACUUGACGAAGCUG
Method in brief: as §1

Sequence	self-aminoacylation (biotinyl-Phe-oxazolone)	self-aminoacylation (biotinyl-Ile-oxazolone)	self-aminoacylation (biotinyl-Met-oxazolone)	self-aminoacylation (biotinyl-Val-oxazolone)	self-aminoacylation (biotinyl-Leu-oxazolone)	self-aminoacylation (biotinyl-Trp-oxazolone)
CUACUUCAUACAAUCGCUCUG [Fam1A.1 aminoacylation ribozyme variant]	0.52	0.66	0.626	0.627	0.605	0.357
GUUCACCUAGGUAAUCGGGUG [Fam2.2 aminoacylation ribozyme variant]	9.25	2.38	2.74	2.12	2.92	3.83
AUUACCCUGGGCAUCGAAUGA [Fam2.1 aminoacylation ribozyme variant]	1.14	0.945	0.647	0.934	0.912	2.01
AUACCCCUGGUCAUCGAGUGA [Fam2.1 aminoacylation ribozyme variant]	7.63	3.42	6.17	2.88	5.62	7.04
CUACUUCAGAAAAUCGGUCUG [Fam1A.1 aminoacylation ribozyme variant]	1.55	0.791	0.803	0.816	0.757	0.826
AUUACCCUGGCCAUGGAGUGA [Fam2.1 aminoacylation ribozyme variant]	19.7	3.24	4.45	2.79	4.12	5.9
AUUCACCGAGGUCAGCGGGUG [Fam2.2 aminoacylation ribozyme variant]	38.8	5.26	5.57	4.67	6.67	6.61
ACUCACCUAGGUCAUCGGAUG [Fam2.2 aminoacylation ribozyme variant]	0.718	1.13	0.912	1.02	0.812	1.48
AUUACCCUGCUCAUCUAGUGA [Fam2.1 aminoacylation ribozyme variant]	29.8	2.97	6.35	3.3	6.75	8.05
CCACACCUCAAGCCAUCGGUC [Fam1B.1 aminoacylation ribozyme variant]	2.01	1.27	1.38	1.42	1.41	1.55
AUUACCUUGGUCAUCAAGUGA [Fam2.1 aminoacylation ribozyme variant]	3.79	1.97	3.32	1.92	3.54	4.02
AUUACCGUGGUCAUCUAGUGA [Fam2.1 aminoacylation ribozyme variant]	31.2	3.29	6.98	3.82	6.26	7.82
AUUCACCUAGGACAUGGGGUG [Fam2.2 aminoacylation ribozyme variant]	42.9	3.4	5.06	3.42	7.25	5.18
AUUAGCCUGGUCAUCUAGUGA [Fam2.1 aminoacylation ribozyme variant]	19.2	3.39	4.79	2.98	5.06	6.32
AAGUUAGCUAAUAGUCGCAAA [Fam3.1 aminoacylation ribozyme variant]	2.51	2.01	1.47	1.39	1.64	1.06
AUUCACCUAGGUCAUCGAGUG [Fam2.2 aminoacylation ribozyme variant]	35.7	10.8	14.3	8.76	19.3	8.05
UAGUUUGCUAAUAGUCGCAAA [Fam3.1 aminoacylation ribozyme variant]	1.58	1.95	1.75	1.38	1.53	2.06
CCACACUUCAAGCAAUCUGUG [Fam1B.1 aminoacylation ribozyme variant]	0.656	0.514	0.547	0.635	0.657	0.383
AAUUACCUAGGUCAUCGGGUG [Fam2.2 aminoacylation ribozyme variant]	38	4.3	6.04	4.24	6.53	7.49
GUUCACCUACGUCAUCGGGUG [Fam2.2 aminoacylation ribozyme variant]	31	3.26	4.35	3.69	5.15	4.3
AUUACCCGUGUCAUCGAGUGA [Fam2.1 aminoacylation ribozyme variant]	38.3	4.4	8.54	4.8	8.6	10.7
AUCACCCUGGUCAUCGCGUGA [Fam2.1 aminoacylation ribozyme variant]	215	12.1	33.9	17.1	36.4	33.8
CCACACUUCAAGAAAUCGGAC [Fam1B.1 aminoacylation ribozyme variant]	0.823	0.898	0.663	0.685	0.572	0.393
CCAGACUUCAAGCAAUCGGUA [Fam1B.1 aminoacylation ribozyme variant]	1.22	1.41	1.66	1.4	1.16	1.75
AUUCACCUAGGACAGCGGGUG [Fam2.2 aminoacylation ribozyme variant]	15.1	2.23	2.49	2.21	2.58	2
AUUACCGUGGUCACCGAGUGA [Fam2.1 aminoacylation ribozyme variant]	9.08	2.39	3.87	2.83	3.65	2.95

Sequence	self-aminoacylation (biotinyl-Phe-oxazolone)	self-aminoacylation (biotinyl-Ile-oxazolone)	self-aminoacylation (biotinyl-Met-oxazolone)	self-aminoacylation (biotinyl-Val-oxazolone)	self-aminoacylation (biotinyl-Leu-oxazolone)	self-aminoacylation (biotinyl-Trp-oxazolone)
AUUACCAUCGUCAUCGAGUGA [Fam2.1 aminoacylation ribozyme variant]	5.68	2.21	3.19	2.32	3.6	3.53
GUUACCCUGGCCAUCGAGUGA [Fam2.1 aminoacylation ribozyme variant]	43.7	4.06	6.73	5	8.07	9.03
AUUGACCUAGGUUAUCGGGUG [Fam2.2 aminoacylation ribozyme variant]	29.1	4.71	4.96	4.7	5.36	6.6
AUUUACCUAGGUCAUCGGGUA [Fam2.2 aminoacylation ribozyme variant]	218	14.1	29.5	12.3	39.9	22.2
AUUCCCCUAGAUCAUCGGGUG [Fam2.2 aminoacylation ribozyme variant]	75.1	7.3	9.42	6.64	11.9	9.85
GAGUUUGCCAAUAGUCGCAAG [Fam3.1 aminoacylation ribozyme variant]	4.39	1.7	1.1	1.48	1.09	2.08
AUAACCCAGGUCAUCGAGUGA [Fam2.1 aminoacylation ribozyme variant]	19.3	2.67	5.5	2.95	4.72	6.13
AUUACCCUGGUCAUCUAAUGA [Fam2.1 aminoacylation ribozyme variant]	0.963	0.967	1.06	0.917	0.908	0.586
AUUACCCUGUUCAUGGAGUGA [Fam2.1 aminoacylation ribozyme variant]	62.8	5.12	11.1	5.28	11.4	11.8
AUGUUUGCUAAUAGUCGCAGG [Fam3.1 aminoacylation ribozyme variant]	2.47	1.54	1.76	1.33	1.8	1.95
AUUAUCCUGGUCAUAGAGUGA [Fam2.1 aminoacylation ribozyme variant]	59	4.58	9.86	4.11	10.1	11.7
AAGUUUGCUAAUCCUCGCAAG [Fam3.1 aminoacylation ribozyme variant]	0.881	0.706	0.628	0.733	0.725	0.599
AUUCACCUAGGUCAUCGGCUG [Fam2.2 aminoacylation ribozyme variant]	4.96	1.74	1.73	1.91	1.91	1.49
AUUGCCCUGGUCAUCGAGUUA [Fam2.1 aminoacylation ribozyme variant]	8.37	2.31	4.84	2.64	5.24	4.44
AAGUUUGCUCAUAGUCUCAAG [Fam3.1 aminoacylation ribozyme variant]	1.98	0.872	0.869	0.901	0.977	0.98
CAGUUUGUUAAUAGUCGCAAG [Fam3.1 aminoacylation ribozyme variant]	2.25	1.57	1.74	1.42	1.64	1.37
CUACACUUCAAACAAUCGGUC [Fam1B.1 aminoacylation ribozyme variant]	88.2	1.22	1.34	1.27	2.08	39
CUACUUCAAACAAUUGGCCUG [Fam1A.1 aminoacylation ribozyme variant]	2.28	1.57	1.11	1.33	1.34	2.03
CUGCUUCAAACGAUCGGUCUG [Fam1A.1 aminoacylation ribozyme variant]	2.63	0.727	0.991	0.803	1.11	3.49
CCACACGUCAACCAAUCGGUC [Fam1B.1 aminoacylation ribozyme variant]	1.24	1.09	1.07	1.47	1.17	1.32
UUUACCCUGAUCAUCGAGUGA [Fam2.1 aminoacylation ribozyme variant]	23.3	3.92	8.08	4.05	7.11	9.79
CCACAUUGCAAGCAAUCGGUC [Fam1B.1 aminoacylation ribozyme variant]	1.99	1.75	1.67	1.68	1.87	1.58
AUUCUCCUAGGUCAUCAGGUG [Fam2.2 aminoacylation ribozyme variant]	6.58	2.12	2.62	2.3	2.71	2.38
AUUCAACUAGGUCAUCGGGUC [Fam2.2 aminoacylation ribozyme variant]	1.77	1.02	1.14	0.979	1.15	1.22
GUUCAGCUAGGUCAUCGGGUG [Fam2.2 aminoacylation ribozyme variant]	25	3.97	3.72	4.11	5.08	5.82
